The values that follow come from patent US9403875B2, “Cage-like bifunctional chelators, copper-64 radiopharmaceuticals and PET imaging using the same” (UNIVERSITY OF SOUTHERN CALIFORNIA, priority 2009, dated 2016).

A short description of data set [1]: In vitro stability of 64Cu-labeled RGD conjugates in PBS, FBS and mouse serum. Conditions: 37° C., 24 h incubation; for remaining at 24 h, 3.7 MBq/mL: read-out: radiochemical purity / tracer remained intact. In kind it is in vitro ADME. The procedure:
After incubated at 37° C. for 3, 18, and 24 h, an aliquot of the mixture was removed from the PBS solution and the radiochemical purity was determined with HPLC. For the solution of FBS and mouse serum, the aliquots were added to 100 μL PBS with 50% TFA. After centrifugation, the upper solution was taken and filtered for HPLC analysis.

Data set [2] in a line: Log P of 64Cu-labeled RGD conjugates (1-octanol/PBS). It is filed as physicochemical. Conditions: pH 7.4, read-out: log P (octanol/water partition coefficient). The procedure: After vigorously vortexing for 10 min, the vial was centrifuged for 5 min to ensure the complete separation of layers. Then, 3×10 μL of each layer was pipetted into other test tubes and radioactivity was measured using a gamma counter (Perkin-Elmer Packard Cobra). The measurement was repeated three times, and Log P values were calculated according to a known formula.

The nature of data set [3]: Metabolic stability in U87 MG tumor-bearing mouse (radio-HPLC of blood and tissue homogenates). It is filed as in vivo, athymic nude mouse. The note with it: 1 h post injection, i.v. The procedure:
The blood was collected and immediately centrifuged for 5 min at 13,200 rpm, and the upper serum solution was added to 100 μL PBS solution containing 50% TFA, followed by mixing and centrifugation for 10 min, and the upper solution was then taken out and filtered for HPLC analysis. Liver, kidneys, and tumor were homogenized using a homogenizer, suspended in 1 mL of PBS buffer, and centrifuged for 10 min at 14,000 rpm, respectively. For each sample, after removal of the supernatant, the solution was added to 100 μL PBS solution containing 50% TFA, followed by mixing and centrifugation for 10 min, and the upper solution was then taken and filtered for HPLC analysis. Radioactivity was monitored using a solid-state radiation detector. The eluent was also collected using a fraction collector (1.5 min/fraction) and the radioactivity of each fraction was measured with the γ counter.

Data set [4] deals with U87 MG human glioblastoma cell line (integrin αvβ3-positive). As to the kind of experiment: Cell uptake study in U87 MG cells. In kind it is cell-based. Conditions: blocking with excess cold cyclic RGD. Here is the method:
U87 MG human glioblastoma cell line (integrin αvβ3-positive) was obtained from the American Type Culture Collection (ATCC, Manassas, Va.) and maintained under standard conditions according to ATCC as following: The U87 MG glioma cells were grown in Gibco's Dulbecco's medium supplemented with 10% fetal bovine serum (FBS), 100 IU/mL penicillin, and 100 μg/mL streptomycin (Invitrogen Co, Carlsbad, Calif.), at 37° C. in humidified atmosphere containing 5% CO2. The U87 MG glioma cells were grown in culture until sufficient cells were available.
The cell uptake study was performed as described in the literature with some modifications. […] The tumor cells were then washed three times with chilled PBS and harvested by 0.1 N NaOH solution containing 0.5% sodium dodecyl sulfate (SDS). The cell suspensions were collected and measured in the gamma counter.

Data set [5] is described as follows: MicroPET imaging of U87 MG tumor-bearing nude mice. In kind it is in vivo, athymic nude mice. Conditions: athymic nude, mouse, in vivo, iv, 11.1 MBq, total radioactivity, microPET; for tissue uptake at 1 h: 1 h p.i.; for tissue uptake at 2 h: 2 h p.i.; for tissue uptake at 4 h: 4 h p.i.; for tissue uptake at 20 h: 20 h p.i. Here is the method: (§1) Athymic nude mice (about 10-20 weeks old, with a body weight of 25-35 g) were obtained from Harlan (Charles River, Mass.). All animal experiments were performed according to a protocol approved by University of Southern California Institutional Animal Care and Use Committee. The U87 MG human glioma xenograft model was generated by subcutaneous injection of 5×10^6 U87 MG human glioma cells into the front flank of athymic nude mice. The tumors were allowed to grow 3-5 weeks until 200-500 mm^3 in volume. Tumor growth was followed by caliper measurements of the perpendicular dimensions.
(§2) MicroPET scans and imaging analysis were performed using a rodent scanner (microPET R4; Siemens Medical Solutions) as previously reported (26). Li, Z., Cai, W., Cao, Q., Chen, K., Wu, Z., He, L., and Chen, X. (2007) ^64Cu-labeled tetrameric and octameric RGD peptides for small-animal PET of tumor αvβ3 integrin expression. J Nucl Med 48, 1162-71. […] Ten minute static scans were acquired at 1, 2, 4, and 20 h post injection. The images were reconstructed by a 2-dimensional ordered-subsets expectation maximum (OSEM) algorithm. For each microPET scan, regions of interest were drawn over the tumor, normal tissue, and major organs on the decay-corrected whole-body coronal images. The radioactivity concentration (accumulation) within the tumor, muscle, liver, and kidneys were obtained from the mean value within the multiple regions of interest and then converted to % ID/g.

Data set [6] concerns U87 MG human glioma xenograft tumors. As to the kind of experiment: MicroPET imaging of U87 MG tumor-bearing nude mice. In kind it is in vivo, athymic nude mice. The note with it: microPET. The procedure: as §1, §2
The nature of data set [7]: Biodistribution by direct tissue sampling in U87 MG tumor bearing nude mice. Conditions: athymic nude, mouse, in vivo, 0.37 MBq, total radioactivity, direct tissue sampling, 20 h p.i. Here is the method: All mice were sacrificed and dissected at 20 h after the injection of the tracers. Blood, U87 MG tumor, major organs, and tissues were collected and weighed wet. The radioactivity in the tissues was measured using the gamma counter. The results were presented as percentage injected dose per gram of tissue (% ID/g). For each mouse, the radioactivity of the tissue samples was calibrated against a known aliquot of the injected activity. Mean uptake (% ID/g) for each group of animals was calculated with standard deviations.
To validate the accuracy of small animal PET quantification, we also performed a biodistribution experiment by using the direct tissue sampling technique. The data shown as the percentage administered activity (injected dose) per gram of tissue (% ID/g) in FIG. 19A. Both ^64Cu-AmBaSar-RGD and ^64Cu-DOTA-RGD mainly accumulated in kidneys, liver, stomach, intestine, and tumor. […] This difference was consistent with the excretion pattern from the microPET imaging results.

Where two headings read alike, the source gives them in different places.

Turning to `N=C(N)NCCC[C@@H]1NC(=O)[C@H](CCCCNC(=O)c2ccc(CNC34CNCCNCC(N)(CNCCNC3)CNCCNC4)cc2)NC(=O)[C@@H](Cc2ccc(O)cc2)NC(=O)[C@H](CC(=O)O)NC(=O)CNC1=O` [^64Cu-AmBaSar-RGD, metal not drawn], the “radiochemical purity / tracer remained intact” value in data set [1] (PBS or FBS) is reported as “more than 97%”; in data set [1] (mouse serum), over 95%. The remaining at 24 h, 3.7 MBq/mL in data set [1] (mouse serum) is over 95%; in data set [1] (serum, pH 7.4, PBS or FBS) it was over 97%. In addition, in data set [2], the logP is -2.44 ± 0.12. Besides, in data set [3], the “amount of intact tracer in the blood” value is on record as “approximately 88%”. Besides, the “amount of intact tracer in the kidneys” value in data set [3] is on record as about 98%. Moreover, the “amount of intact tracer in the liver” value in data set [3] is about 98%. Also, in data set [3], the “amount of intact tracer in the tumor” value is on record as about 95%. Moreover, the “binding to U87 MG cells in presence of excess cold cyclic RGD peptide” value in data set [4] is “efficiently blocked”. For the same compound, the tissue uptake at 1 h turned out to be 0.89 ± 0.13 %ID/g in data set [5] (read-out: liver uptake) and 2.83 ± 0.77 %ID/g in data set [5] (read-out: renal uptake). Besides, the tissue uptake at 2 h in data set [5] (read-out: liver uptake) turned out to be 0.76 ± 0.13 %ID/g; in data set [5] (read-out: renal uptake) it was 2.68 ± 0.55 %ID/g. Moreover, the tissue uptake at 4 h was determined as 0.75 ± 0.14 %ID/g in data set [5] (read-out: liver uptake) and 2.49 ± 0.5 %ID/g in data set [5] (read-out: renal uptake). Moreover, the tissue uptake at 20 h came out at 0.64 ± 0.06 %ID/g in data set [5] (read-out: liver uptake), 1.43 ± 0.35 %ID/g in data set [5] (read-out: renal uptake), 1.51 ± 0.27 %ID/g in data set [7] (read-out: kidneys uptake) and 0.55 ± 0.06 %ID/g in data set [7] (read-out: liver uptake). The “uptake in U87 MG tumors” value in data set [6] (1 h p.i.) came out at 2.04±0.14 % ID/g; in data set [6] (4 h p.i.), 1.87±0.11 % ID/g; in data set [6] (20 h p.i.), 0.97±0.05 % ID/g.
